Measured values reported in the DeepSol protein solubility set.

Experiment: soluble on expression in E. coli; label from the status in PepcDB or PDB records

Sequence	soluble on expression in E. coli
MRFIHTSDWHLGKSLEGHSRIEEQAKFCEEFIKIVESNEIDMVIIAGDVYDTSNPPAQAEKLFYQTVSRLANNGQRCVLIISGNHDNPERLSAITPLAHEQGILIYGYPLSATIEAKYKGFEITYATQGCTKLNINGENIVVATLPYPSEKRLNEVFSSEDEFEKQKNYSEKVGDIFRSLEENFRSDTINIAVSHIFVIGGESTESERPIQLGGSFLVERKDLPEKAQYTALGHLHKQQKASERLNAYYSGSPLQYSKDERAYTKGAYIVDIKAGEKPIIEDVYFNNYKPIEVFKCNGIEEALDICEQNQDREIWSYFEINTDEIISQNEIKKMKELLKDIIEIKPIITSCYEQESVDIKEKSMAELFREFYSFSKGVEPKGELMDLFLDIISEEGESADETN	not soluble
GYDHKAIGITAKGAWEAVKRHFRESFNHDIQTTPFTCIGVGDMSGDVFGNGMLLSKQTKLIAAFDHRDIFIDPDPNIAESYTERMRLFQLPRSSWQDYDQTKLSKGGGIFSRTEKTITLSPEAAKAIGFAKQTGTPFEIISALLKAPVDLLWFGGIGTYIRATTETDAQVGDRANDALRITGEQVRAKVIGEGANLGVTQRGRIEYVLNGGRCNTDAIDNSAGVNCSDVEVNIKIVLASALRAKTLTRETRNELLKKMTPQVEQLVLRNNYLQTLALSLAESQSAADL	not soluble
IVGGYTCQENSVPYQVSLNSGYHFCGGSLINDQWVVSAAHCYKSRIQVRLGEHNINVLEGDEQFVNAAKIIKHPNFDRKTLNNNIMLIKLSSPVKLNARVATVALPSSCAPAGTQCLISGWGNTLSSGVNEPDLLQCLDAPLLPQADCEASYPGKITDNMVCVGFLEGGKDSCQGDSGGPVVCNGELQGIVSWGYGCALPDNPGVYTKVCNYVDWIQDTIAAN	soluble
MGSDKIHHHHHHMSCIDCAVKNCNKMDKTYPDFCLTTHMDEEVLNEAMECYNEDENRKVTIAAAEVEYENYCKHTRVEEIMDFAKKINAKKIGIATCVGLLKESRILADILRRHGFEVYGVGCKAGTQKKTSVGIPECCEGVGVNMCNPILQAKLLNKAKTDLNVVVGLCVGHDSLFYKYSEALTTTAVTKDRVLGHNPVAALYTADSYYSKLKKSEEE	not soluble
MSLQESSFVHLHNHTQFSVLQSTMAVPDLVAAAAKHNMPAVAITDHANMMGAFHFVNAVKKHNSAIANDSENTSQPIKPIIGCEFFVCEDHTDRTHKDNGYQMVILAKNKKGYHNLAKMSSMGFTKGFYYIPRIDKKLIETYKDDLIVLSGSLYGEIASKLLNLGENQAEESLVWWKETFGDDFYVEIMRHQQEDEERANEALIRLANKHDINLVATNNTYYADQKDANAHDILLCVKEGEKQATPIGRGRGYRYGLPNDQYYFKSAEEMKSLFKDLPQAISNTEAIANKVEAFELAREVLLPAFVIPEQFLDEADKTDAGKRGENAYLKHLTFEGAKRRYGELSEEIKDRLDFELSVIANTGYPGYFLIVEDFIREARKMGVSVGPGRGSAAGSAVAYCLKITNIDPIKYDLLFERFLNPERVSMPDIDIDFDDEGRSKVMDYVIEKYGQNQVAQIITYGTMAAKSAIRDTARVLDLPLYEADRIAKLIPDMSKLGKIFSMNEKEEGHHHHHH	soluble
MSDYQMFEVQVSQVEPLTEQVKRFTLVATDGKPLPAFTGGSHVIVQMSDGDNQYSNAYSLLSSPHDTSCYQIAVRLEENSRGGSRFLHQQVKVGDRLTISTPNNLFALIPSARKHLFIAGGIGITPFLSHMAELQHSDVDWQLHYCSRNPESCAFRDELVQHPQAEKVHLHHSSTGTRLELARLLADIEPGTHVYTCGPEALIEAVRSEAARLDIAADTLHFEQFAIEDKTGDAFTLVLARSGKEFVVPEEMTILQVIENNKAAKVECLCREGVCGTCETAILEGEADHRDQYFSDEERASQQSMLICSRAKGKRLVLDL	soluble
MSLKITGNTILITGGGSGIGRALAEAFHQAGNRVIISGRRQAVLDEVTAANPGMASMVMDAGDAEGIRAFAEALVKAHPTLNAVINNAGIMRPEEIAAAPDYLDTAEETIATNLLAPIRLTAALLPHFLKQPAATVLTVSSGLAFVPMVLTPTYSATKSAIHAYSVALREQLKETSVEVIEIVPPYVQTTLMGEGQANDERAMPLEAFISEVMDILKNRPDEKEVVVERCKPLRFAAQNGNFDQVFAMINHMHEGHHHHHH	soluble
MSHVTAAPNVLAASAGELAAIGSTMRAANAAAAAPTAGVLAAGGDDVSAGIAALFGARAQAYQAISAQAALFHDRFVQILQEGAAAYAMAEAANALPLQKAQGVVSELAQDRTGGTGTGQSRGAGGFGGVGQAGGKGWDGGPIGNGQVGEQHGAGQLGSTDGNPGVAGAAHGSGVSASHGSGATGAAGVADPGGSGAGVGSAAGNGTGAGSADAVGGAGTGRDIVGSVRGDGGVGMASGDGGLSTGAAGASAEGGLMPGFGGAPWVGGHWGLGGEGHSGAIGGVGEQVAPAVATAPAVSPATTSAVAAESGSTPATKAQAMHATTNPGNAAHQGNPADPGNSARRADGGRDEQLLLLPLTSLRGLRHTLKKLSGLRARNGLLTASGDNASGSGRPWDRDQLLRALGLRPPGHE	not soluble
APLKLYGMPLSPNVVRVATVLNEKGLDFEIVPVDLTTGAHKQPDFLALNPFGQIPALVDGDEVLFESRAINRYIASKYASEGTDLLPATASAAKLEVWLEVESHHFYPNASPLVFQLLVRPLLGGAPDAAVVDKHAEQLAKVLDVYEAHLARNKYLAGDEFTLADANHASYLLYLSKTPKAGLVAARPHVKAWWEAIVARPAFQKTVAAIPLPPPP	soluble
ATCDDGRTTANAACCILFPILDDIQENLFDGAQCGEEVHESLRLTFHDAIGFSPTLGGGGADGSIIAFDTIETNFPANAGIDEIVSAQKPFVAKHNISAGDFIQFAGAVGVSNCPGGVRIPFFLGRPDAVAASPDHLVPEPQDSVDSILARMGDAGFSPVEVVWLLASHSIAAADKVDPSIPGTPFDSTPGVFDSQFFIETQLKGRLFPGTADNKGEAQSPLQGEIRLQSDHLLARDPQTACEWQSMVNNQPKIQNRFAATMSKMALLGQDKTKLIDCSDVIPTPPALVGAAHLPAGFSLSDVEQACAATPFPALTADPGPVTSVPPVPGS	soluble
MGSDKIHHHHHHMPEPRRSTIDAGEVERFSALAAEWWNPNGKFRPLHKFNPVRLSYIRDQIAARFGRDPRAARPFEGLRILDIGCGGGLLCEPMARLGAEVVGADASETNIEVAKLHAAEGNVIVDYRATTAEDLADAGETFDVILNMEVVEHVADIDLFVAKCGQMVRPGGIMFVATINRTLKALGLAIIGAEYVLRWLPRGTHQFGKLVRPEELEKALGGASLTIIDRTGVTYNPLADRWARSKDMDVNYMVLAEKGSV	not soluble
MASNFKKANMASSSQRKRMSPKPELTEEQKQEIREAFDLFDADGTGTIDVKELKVAMRALGFEPKKEEIKKMISEIDKEGTGKMNFGDFLTVMTQKMSEKDTKEEILKAFKLFDDDETGKISFKNLKRVAKELGENLTDEELQEMIDEADRDGDGEVSEQEFLRIMKKTSLY	soluble
SASAGGEDCESPAPEADRPHQRPFLIGVSGGTASGKSTVCEKIMELLGQNEVEQRQRKVVILSQDRFYKVLTAEQKAKALKGQYNFDHPDAFDNDLMHRTLKNIVEGKTVEVPTYDFVTHSRLPETTVVYPADVVLFEGILVFYSQEIRDMFHLRLFVDTDSDVRLSRRDKEVCRCDHPTRSGQYGCHQPDRAAHPGHSEW	soluble
MKLKHKRDDKMRFDIKKVLELAEKDFETAWRETRALIKDKHIDNKYPRLKPVYGKPHPVMETIERLRQAYLRMGFEEMINPVIVDEMEIYKQFGPEAMAVLDRCFYLAGLPRPDVGLGNEKVEIIKNLGIDIDEEKKERLREVLHLYKKGAIDGDDLVFEIAKALNVSNEMGLKVLETAFPEFKDLKPESTTLTLRSHMTSGWFITLSSLIKKRKLPLKLFSIDRCFRREQREDRSHLMSYHSASCVVVGEDVSVDDGKVVAEGLLAQFGFTKFKFKPDEKKSKYYTPETQTEVYAYHPKLGEWIEVATFGVYSPIALAKYNIDVPVMNLGLGVERLAMIIYGYEDVRAMVYPQFYEYRLSDRDIAGMIRVDKVPILDEFYNFANELIDICIANKDKESPCSVEVKREFNFNGERRVIKVEIFENEPNKKLLGPSVLNEVYVYDGNIYGIPPTFEGVKEQYIPILKKAKEEGVSTNIRYIDGIIYKLVAKIEEALVSNVDEFKFRVPIVRSLSDINLKIDELALKQIMGENKVIDVRGPVFLNAKVEIK	soluble
